Changes are numbered by the printed parent chain. Names and notes keep the numbering of the source. Marks after values point to notes of the source that are not given here.
What was measured:
[1] = molecular target: T1, human HER2/HER3 (Homo sapiens, UniProt P21860); assay: Human HER2/HER3 phospho-ERK 1/2 assay, purified proteins, CHO-K1 cells; type: cell-based; settings: purified proteins; phospho-ERK1/2
T1 construct: expressed in transfected cells
Experimental: (§1) A cell based assay utilizing CHO-K1 cells overexpressing human or rat HER receptors is used to determine activity of NRG4 compounds. CHO-K1 cells (ATCC) are grown in DMEM-F12 3:1 with 5% FBS with 20 mM HEPES, 40 μg/mL L-Proline, lx antibiotics and were split 1:5 every 2-3 days with TripLE Express (Gibco). Cells are transfected with plasmid DNA encoding HER receptors in pairs (hHER2-3, hHER2-4, rHER2-3 and rHER2-4) with Fugene 6 (Promega) according to the manufacturer's instructions. […] Transfected cells are selected with Puromycin (12 ug/ml) and Hygromycin (1 mg/ml) for 3-4 weeks and clonal lines are obtained by limited dilution cloning into 96 well plates. Clonal lines are selected by appropriate gene expression of HER2, HER3 or HER4 by Taqman method. Lines with appropriate receptor expression are confirmed by NRG1 induced phospho-ERK 1/2 responses. Clones are grown up, harvested, aliquoted into cryovials and then frozen under liquid nitrogen for long-term storage.
(§2) A phospho-ERK1/2 activity assay is utilized with CHO-K1 cells overexpressing human or rat HER receptors to determine potencies and selectivity of purified NRG4 compounds. CHO-K1 cell lines expressing the human or rat HER receptors are cultured with selection medium (DMEM-F12 3:1 with 5% FBS with 20 mM HEPES, 40 μg/mL L-Proline, 1× antibiotics, 12 μg/mL puromycin, 1 mg/mL Hygromycin B). On Day −1 (the day before phospho-ERK1/2 assay), cells are washed once with PBS, detached with enzyme free cell dissociation solution (GIBCO cat #13151-014), and resuspended in plating medium (DMEM-F12 3:1 with 20 mM HEPES, lx antibiotics, 0.2% FBS). Cells are plated in a 96-well Poly-D-Lysine coated plate (BD cat #354640) at 10,000 cells per 0.1 mL per well. Cells are cultured in a tissue culture incubator at 37° C. 5% CO2 overnight. On Day 1 (the day of pERK1/2 assay), plates are incubated at room temperature for 30 min. The culture media are removed followed by addition of 504, ligand at various concentrations diluted in PBS-20 mM HEPES-0.005% BSA. Native human NRG1 and NRG4 peptides are purchased from Reprokine (Tampa, Fla.). The stimulation time is 30 min (except for hHER2-4 1H6 line in which 15 min is used for stimulation). At the end of stimulation, ligands are removed and 704, Lysis buffer (made according to manufacturer's recipe, Perkin Elmer cat #ALSU-PERK-A10K) is added. Plates are incubated at room temperature for 10 min on plate shaker with 350 rpm agitation, then on ice for 1 hour without shaking. 304, of cell lysis is transferred to a 96-well white Optiplate (Perkin Elmer cat #6002290) for phospho-ERK1/2 assay. Briefly 7.5 μL acceptor beads are added to 30 μL lysis in Optiplate. The plate is covered with aluminum foil and incubated at room temperature for 1 hour on plate shaker with 350 rpm agitation. Then 7.5 μL donor beads are added and the plate is covered with aluminum foil and incubated at room temperature for 2 hours on plate shaker with 350 rpm agitation or at 4° C. for overnight (warm up plate at room temperature for 2 h before reading). Alpha signal data are obtained on an Envision instrument (Alpha Technology-compatible plate reader). Donor beads and acceptor beads are made according to assay protocol. The data shown are generated with either the AlphaScreen SureFire p-ERK1/2 (Thr202/Tyr204) assay kit (Cat #TGRES50k) or the AlphaLISA® SureFire® Ultra™ p-ERK 1/2 (Thr202/Tyr204) assay kit (Perkin Elmer cat #ALSU-PERK-A10K). The activity of the NRG1 peptide was similar in both types of assays. […]

[2] = Plasma pharmacokinetics in rats (toxicology studies); settings: rat, in vivo, sc, 30 mg/kg
Experimental: (§3) Example 11 is administered in a single 3 mg/kg dose to male and female monkeys by SC bolus injection.

[3] = molecular target: T2, human HER2/HER4 (Homo sapiens, UniProt Q15303); assay: Human HER2/HER4 phospho-ERK 1/2 assay, purified proteins, CHO-K1 cells; type: cell-based
T2 construct: expressed in transfected cells
Experimental: as §1
as §2, with “assays. Raw data obtained from the Envision instrument is imported into GraphPad Prism software (version 7). The EC50 value is generated by a variable slope-four parameter dose response curve. The % of maximal NRG1 activity data are generated by expressing the average maximal raw data for the NRG4 compound over the average maximal raw data for the native human NRG1 per plate and multiplying by 100. Data are provided below in Tables 7-9. N values reflect number of independent assays run.” for “assays.”

[4] = molecular target: T3, rat HER2/HER3 (Rattus norvegicus, UniProt Q62799); assay: Rat HER2/HER3 phospho-ERK 1/2 assay, purified proteins, CHO-K1 cells; type: cell-based; settings: phospho-ERK1/2
T3 construct: expressed in transfected cells
Experimental: as §1
A phospho-ERK1/2 activity assay is utilized with CHO-K1 cells overexpressing human or rat HER receptors to determine potencies and selectivity of purified NRG4 compounds. CHO-K1 cell lines expressing the human or rat HER receptors are cultured with selection medium (DMEM-F12 3:1 with 5% FBS with 20 mM HEPES, 40 μg/mL L-Proline, 1× antibiotics, 12 μg/mL puromycin, 1 mg/mL Hygromycin B). On Day −1 (the day before phospho-ERK1/2 assay), cells are washed once with PBS, detached with enzyme free cell dissociation solution (GIBCO cat #13151-014), and resuspended in plating medium (DMEM-F12 3:1 with 20 mM HEPES, lx antibiotics, 0.2% FBS). Cells are plated in a 96-well Poly-D-Lysine coated plate (BD cat #354640) at 10,000 cells per 0.1 mL per well. […] Then 7.5 μL donor beads are added and the plate is covered with aluminum foil and incubated at room temperature for 2 hours on plate shaker with 350 rpm agitation or at 4° C. for overnight (warm up plate at room temperature for 2 h before reading). Alpha signal data are obtained on an Envision instrument (Alpha Technology-compatible plate reader). […]

[5] = test system: rat model of heart failure with reduced ejection fraction (HFrEF); assay: Rat MI model, Example 11 dose-response, echocardiography; type: in vivo
Experimental: A nonclinical efficacy pharmacology study is conducted in a rat model of heart failure with reduced ejection fraction (HFrEF) to identify dose-response relationship for Example 11.
Briefly, the rats are anesthetized and positively ventilated throughout the procedure. […] The left coronary artery is permanently ligated. The sham-operated animals undergo the same procedure except the silk suture is placed around the left coronary artery without being tied. All rats are individually housed in a temperature and humidity controlled room and maintained on a 12 hour light/dark cycle. Three weeks after surgery, rats undergo transthoracic echocardiography for determination of ejection fraction (EF %) and left ventricle dimensions (LVD) using a Vevo 2100 ultrasound system. Rats are randomized across treatment groups according to EF % and LVD.
Measurements of EF % and LVD are expressed as mean values±standard error (SE). Statistical analysis is performed with JMP® 13 software (SAS Institute, Inc.; Cary, N.C.) and Dunnett's Test is used for statistical comparisons across treatment groups. Statistical significance is accepted at P<0.05.
Two to three weeks after MI surgery, animals are allocated to treatment groups and treated with a single injection of vehicle (DPBS) or one of the 3 dose levels (0.3, 1, 3 mg/kg) of Example 11.

[6] = test system: rats; assay: Toxicology study in rats, cardiac tissue inspection; settings: single SC injection of 30 mg/kg
[7] = Plasma pharmacokinetics in monkeys (toxicology studies); settings: cynomolgus monkey, in vivo, sc, 3 mg/kg
Experimental: as §3

[8] = molecular target: T4, rat HER2/HER4 (Rattus norvegicus, UniProt Q62956); assay: Rat HER2/HER4 phospho-ERK 1/2 assay, purified proteins, CHO-K1 cells; type: cell-based
T4 construct: expressed in transfected cells
Experimental: as §1
as §2, with “assays. Raw data obtained from the Envision instrument is imported into GraphPad Prism software (version 7). The EC50 value is generated by a variable slope-four parameter dose response curve. The % of maximal NRG1 activity data are generated by expressing the average maximal raw data for the NRG4 compound over the average maximal raw data for the native human NRG1 per plate and multiplying by 100. Data are provided below in Tables 7-9. N values reflect number of independent assays run.” for “assays.”

[9] = test system: cynomolgus monkeys; assay: Toxicology study in cynomolgus monkeys, cardiac tissue inspection; settings: male and female monkeys, single 3 mg/kg SC bolus injection
Experimental: as §3

[10] = maximal signal relative to native human NRG1 per plate
[11] = purified proteins, phospho-ERK1/2

T4 sequence (Q62956 26-1308): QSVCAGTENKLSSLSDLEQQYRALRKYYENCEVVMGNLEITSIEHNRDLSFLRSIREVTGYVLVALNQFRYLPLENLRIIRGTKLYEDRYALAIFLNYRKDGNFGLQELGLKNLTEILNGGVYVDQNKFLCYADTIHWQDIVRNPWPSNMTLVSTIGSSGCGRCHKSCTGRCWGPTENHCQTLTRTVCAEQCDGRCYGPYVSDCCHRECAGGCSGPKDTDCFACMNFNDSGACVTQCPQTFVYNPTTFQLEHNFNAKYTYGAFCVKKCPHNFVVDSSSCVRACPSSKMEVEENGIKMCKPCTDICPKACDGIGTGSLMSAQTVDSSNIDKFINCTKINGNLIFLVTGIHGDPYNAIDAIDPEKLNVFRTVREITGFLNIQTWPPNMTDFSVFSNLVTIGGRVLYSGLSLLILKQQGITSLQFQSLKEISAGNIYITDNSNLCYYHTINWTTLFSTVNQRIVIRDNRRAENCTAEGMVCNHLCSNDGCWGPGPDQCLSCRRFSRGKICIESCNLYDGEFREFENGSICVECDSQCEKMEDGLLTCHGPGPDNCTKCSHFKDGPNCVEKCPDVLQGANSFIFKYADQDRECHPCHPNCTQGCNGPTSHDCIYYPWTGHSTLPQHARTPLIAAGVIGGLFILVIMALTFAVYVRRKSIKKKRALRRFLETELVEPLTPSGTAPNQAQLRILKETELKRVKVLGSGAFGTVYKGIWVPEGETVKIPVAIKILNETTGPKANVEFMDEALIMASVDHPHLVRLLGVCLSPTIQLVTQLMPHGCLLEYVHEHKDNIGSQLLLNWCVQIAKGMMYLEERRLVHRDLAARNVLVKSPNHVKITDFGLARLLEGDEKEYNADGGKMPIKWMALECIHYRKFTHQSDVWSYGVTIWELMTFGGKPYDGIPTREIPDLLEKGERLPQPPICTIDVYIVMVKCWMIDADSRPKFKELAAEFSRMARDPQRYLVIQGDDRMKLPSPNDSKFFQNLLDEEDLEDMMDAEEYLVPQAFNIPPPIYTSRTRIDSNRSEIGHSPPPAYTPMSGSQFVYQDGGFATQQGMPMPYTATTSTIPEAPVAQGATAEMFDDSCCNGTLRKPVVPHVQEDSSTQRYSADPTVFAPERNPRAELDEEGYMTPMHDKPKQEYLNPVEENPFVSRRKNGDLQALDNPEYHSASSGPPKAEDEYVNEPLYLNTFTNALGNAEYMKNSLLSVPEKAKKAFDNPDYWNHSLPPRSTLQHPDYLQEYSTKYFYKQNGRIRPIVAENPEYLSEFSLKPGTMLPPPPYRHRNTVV
T4 sequence (P06494 23-1257 partner): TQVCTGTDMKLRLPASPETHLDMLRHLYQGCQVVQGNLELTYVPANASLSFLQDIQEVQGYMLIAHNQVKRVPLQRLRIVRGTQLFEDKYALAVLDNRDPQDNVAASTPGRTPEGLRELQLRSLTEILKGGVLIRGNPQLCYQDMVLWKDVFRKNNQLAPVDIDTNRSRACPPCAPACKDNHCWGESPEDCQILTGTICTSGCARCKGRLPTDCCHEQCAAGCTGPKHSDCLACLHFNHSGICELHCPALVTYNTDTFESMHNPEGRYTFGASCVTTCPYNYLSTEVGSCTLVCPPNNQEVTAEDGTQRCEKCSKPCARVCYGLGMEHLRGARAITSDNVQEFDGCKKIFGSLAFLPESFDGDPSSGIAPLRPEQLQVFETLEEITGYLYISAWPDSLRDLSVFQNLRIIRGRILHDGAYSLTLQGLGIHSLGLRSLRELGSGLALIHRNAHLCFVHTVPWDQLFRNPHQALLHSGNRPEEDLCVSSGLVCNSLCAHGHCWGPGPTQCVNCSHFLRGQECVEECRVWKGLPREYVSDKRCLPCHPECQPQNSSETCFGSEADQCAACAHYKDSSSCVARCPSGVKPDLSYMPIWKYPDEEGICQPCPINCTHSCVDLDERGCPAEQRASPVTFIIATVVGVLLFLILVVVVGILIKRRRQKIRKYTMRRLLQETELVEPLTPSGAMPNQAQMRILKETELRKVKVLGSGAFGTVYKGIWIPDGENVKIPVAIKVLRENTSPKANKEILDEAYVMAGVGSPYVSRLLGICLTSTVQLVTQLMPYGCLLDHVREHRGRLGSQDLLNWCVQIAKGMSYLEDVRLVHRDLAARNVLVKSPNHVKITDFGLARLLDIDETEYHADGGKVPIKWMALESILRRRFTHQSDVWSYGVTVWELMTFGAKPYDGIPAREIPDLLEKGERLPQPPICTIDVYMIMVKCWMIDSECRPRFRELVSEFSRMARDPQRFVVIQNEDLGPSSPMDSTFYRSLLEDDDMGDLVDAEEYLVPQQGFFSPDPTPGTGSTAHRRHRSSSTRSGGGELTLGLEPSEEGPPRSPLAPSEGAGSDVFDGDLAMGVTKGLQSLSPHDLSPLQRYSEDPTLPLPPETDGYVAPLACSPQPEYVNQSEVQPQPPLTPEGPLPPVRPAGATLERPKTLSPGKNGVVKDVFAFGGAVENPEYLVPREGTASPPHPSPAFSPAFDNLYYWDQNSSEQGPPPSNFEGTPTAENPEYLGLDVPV
T3 sequence (Q62799 20-1339): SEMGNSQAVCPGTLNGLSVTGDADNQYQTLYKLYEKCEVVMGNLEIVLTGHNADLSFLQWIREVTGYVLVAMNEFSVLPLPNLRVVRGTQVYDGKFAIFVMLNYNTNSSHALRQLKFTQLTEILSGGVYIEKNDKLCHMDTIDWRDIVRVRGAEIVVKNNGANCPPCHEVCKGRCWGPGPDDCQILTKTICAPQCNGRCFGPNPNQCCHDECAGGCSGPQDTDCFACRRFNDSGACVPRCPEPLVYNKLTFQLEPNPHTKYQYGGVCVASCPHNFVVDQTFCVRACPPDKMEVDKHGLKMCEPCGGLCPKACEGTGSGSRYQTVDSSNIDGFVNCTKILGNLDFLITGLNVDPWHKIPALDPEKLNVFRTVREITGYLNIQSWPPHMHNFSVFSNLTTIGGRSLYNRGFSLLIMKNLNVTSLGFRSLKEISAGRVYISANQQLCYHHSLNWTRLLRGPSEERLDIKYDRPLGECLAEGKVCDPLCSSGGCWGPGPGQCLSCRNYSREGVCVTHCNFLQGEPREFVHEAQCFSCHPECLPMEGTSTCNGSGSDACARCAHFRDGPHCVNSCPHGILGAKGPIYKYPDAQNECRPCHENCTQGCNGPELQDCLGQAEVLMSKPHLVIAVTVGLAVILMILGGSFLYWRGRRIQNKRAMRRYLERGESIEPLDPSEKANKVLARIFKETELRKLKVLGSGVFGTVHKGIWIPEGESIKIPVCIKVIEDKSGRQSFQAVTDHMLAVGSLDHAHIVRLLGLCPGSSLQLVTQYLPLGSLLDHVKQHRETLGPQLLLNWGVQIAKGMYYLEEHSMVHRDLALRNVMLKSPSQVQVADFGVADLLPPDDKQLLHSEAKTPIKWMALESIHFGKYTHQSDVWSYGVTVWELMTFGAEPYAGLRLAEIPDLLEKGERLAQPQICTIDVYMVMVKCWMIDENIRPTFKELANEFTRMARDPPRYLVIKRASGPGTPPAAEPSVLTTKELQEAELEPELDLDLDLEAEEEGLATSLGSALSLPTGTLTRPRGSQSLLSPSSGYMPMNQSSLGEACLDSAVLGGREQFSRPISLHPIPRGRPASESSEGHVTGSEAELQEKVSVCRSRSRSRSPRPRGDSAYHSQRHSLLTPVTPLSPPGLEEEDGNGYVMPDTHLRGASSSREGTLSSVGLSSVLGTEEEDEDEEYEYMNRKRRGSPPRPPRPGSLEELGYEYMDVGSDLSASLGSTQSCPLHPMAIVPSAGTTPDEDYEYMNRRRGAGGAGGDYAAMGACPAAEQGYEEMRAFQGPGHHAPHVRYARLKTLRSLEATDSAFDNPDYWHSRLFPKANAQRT
T3 sequence (P06494 23-1257 partner): as the sequence (P06494 23-1257 partner) above

B1: Example 11: NRG4 D1G/V22Q/E44K, (GGGGS)3 linker, SEQ ID NO: 19, fused to IgG Fc dimer SEQ ID NO: 8 and 9 (protein)
chain 1: GGGGSGGGGSGGGGSGHEEPCGPSHKSFCLNGGLCYQIPTIPSPFCRCVENYTGARCEKVFL
chain 2: ECPPCPAPPVAGPSVFLFPPKPKDTLMASRTPEVTCVVVDVSHEDPEVQFNWYVDGVEVHNAKTKPREEQFNSTFRVVSVLTVVHQDWLNGKEYKCKVSNKGLPAPIEKTISKTKGQPREPQVYTLPPSREEMTKNQVSLWCLVKGFYPSDIAVEWESNGQPENNYKTTPPVLDSDGSFFLYSKLTVDKSRWQQGNVFSCSVMHEALHNAYTQKSLSLSPG
chain 3: B1 chain 2 with W141S, L143A, Y182V
[1]
  EC50: > 1000 nM
[2]
  plasma concentration: undetectable at 96 hours
[3]; [10]
  % Maximal NRG1 activity: 79 ± 2 (N = 5) %
[3]; [11]
  EC50: 0.55 ± 0.11 nM
[4]
  EC50: > 1000 nM
[5]; 0.3 mg/kg single injection, 7 days after dosing
  Ejection Fraction: 50.1* %
[5]; 0.3 mg/kg single injection, 14 days after dosing
  Ejection Fraction: 42.6%
[5]; 0.3 mg/kg single injection, 21 days after dosing
  Ejection Fraction: 36.4%
[5]; 0.3 mg/kg single injection, Baseline (before dosing)
  Ejection Fraction: 45.4%
[5]; 1 mg/kg single injection, 7 days after dosing
  Ejection Fraction: 52.4* %
[5]; 1 mg/kg single injection, 14 days after dosing
  Ejection Fraction: 42.2%
[5]; 1 mg/kg single injection, 21 days after dosing
  Ejection Fraction: 39.7%
[5]; 1 mg/kg single injection, Baseline (before dosing)
  Ejection Fraction: 46.6%
[5]; 3 mg/kg single injection, 7 days after dosing
  Ejection Fraction: 54.7* %
[5]; 3 mg/kg single injection, 14 days after dosing
  Ejection Fraction: 54.0* %
[5]; 3 mg/kg single injection, 21 days after dosing
  Ejection Fraction: 39.6%
[5]; 3 mg/kg single injection, Baseline (before dosing)
  Ejection Fraction: 45.8%
[5]; 0.3, 1, 3 mg/kg single injection vs vehicle, course of the study (data not shown)
  LVD dilation: No differences in LVD dilation are observed across groups
[6]
  inspections of tissue (cardiac toxicity): no evidence of cardiac degeneration and/or necroses
[7]
  time for detectable plasma concentrations to be cleared: > 168 h
[8]; [10]
  % Maximal NRG1 activity: 96 ± 2 (N = 2) %
[8]; [11]
  EC50: 0.17 ± 0.06 nM
[9]
  inspections of tissue (cardiac toxicity): cardiac degeneration and necrosis

From patent US11242370B2, “Neuregulin-4 compounds and methods of use” (Eli Lilly and Company, priority 2019, dated 2022)
